Results: article PMC6122994 (The Journal of Cell Biology, 2018)

Molecular target: the molecule itself
Assay: SEC

B1: MBP-Opi1 (full-length) (natural protein, S. cerevisiae, UniProt P21957 1-404, looked up)
chain: MSENQRLGLSEEEVEAAEVLGVLKQSCRQKSQPSEDVSQADKMPASESSTTPLNILDRVSNKIISNVVTFYDEINTNKRPLKSIGRLLDDDDDEHDDYDYNDDEFFTNKRQKLSRAIAKGKDNLKEYKLNMSIESKKRLVTCLHLLKLANKQLSDKISCLQDLVEKEQVHPLHKQDGNARTTTGAGEDETSSDEDDDDEEFFDASEQVNASEQSIVVKMEVVGTVKKVYSLISKFTANSLPEPARSQVRESLLNLPTNWFDSVHSTSLPHHASFHYANCEEQKVEQQQQQQQQQQQQQLLQQQLLQQQQQKRNKDGDDSASPSSSVTANGKVLILAKESLEMVRNVMGVVDSTLGKAEEWVKQKQEVKEMIRERFLQQQQQYRQQQQKDGNYVKPSQDNVDSKD
  binding result: binds
